According to paper PMC10397247:
One block for each binder: values may come before it.

Experiments:
Experiment in all cases: two-hybrid library CCNG1;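 also: natural log of median RNA to DNA barcode read ratio; higher means stronger binding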
P1mSN = target: T1, P1mSN
T1 chain: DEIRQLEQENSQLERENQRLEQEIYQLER

4H3974-bA = target: T2, 4H3974-bA
T2 chain: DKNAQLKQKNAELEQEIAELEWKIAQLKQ

4H3907-bA = target: T3, 4H3907-bA
T3 chain: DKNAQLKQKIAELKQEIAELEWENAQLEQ

4H363-bA = target: T4, 4H363-bA
T4 chain: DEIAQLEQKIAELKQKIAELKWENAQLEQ

4H470-bA = target: T5, 4H470-bA
T5 chain: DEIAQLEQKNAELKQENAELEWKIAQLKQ

4H344-bA = target: T6, 4H344-bA
T6 chain: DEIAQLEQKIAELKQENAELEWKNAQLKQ

4H3961-bA = target: T7, 4H3961-bA
T7 chain: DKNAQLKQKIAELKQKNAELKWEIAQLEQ

4H2745-bA = target: T8, 4H2745-bA
T8 chain: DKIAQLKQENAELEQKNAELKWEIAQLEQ

4H3364-bN = target: T9, 4H3364-bN
T9 chain: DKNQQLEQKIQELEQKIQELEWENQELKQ

4H2760-bN = target: T10, 4H2760-bN
T10 chain: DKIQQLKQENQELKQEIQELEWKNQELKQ

4H3381-bN = target: T11, 4H3381-bN
T11 chain: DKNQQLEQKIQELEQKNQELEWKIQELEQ

4H56-bN = target: T12, 4H56-bN
T12 chain: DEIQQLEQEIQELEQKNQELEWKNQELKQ

4H2931-bN = target: T13, 4H2931-bN
T13 chain: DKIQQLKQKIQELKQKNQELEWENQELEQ

4H2585-bN = target: T14, 4H2585-bN
T14 chain: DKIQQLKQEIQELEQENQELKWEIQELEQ

4H264-bN = target: T15, 4H264-bN
T15 chain: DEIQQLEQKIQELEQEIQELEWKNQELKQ

4H3041-bN = target: T16, 4H3041-bN
T16 chain: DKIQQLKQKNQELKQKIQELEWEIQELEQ

4H2253-bN = target: T17, 4H2253-bN
T17 chain: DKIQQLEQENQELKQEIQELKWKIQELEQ

4H3297-bN = target: T18, 4H3297-bN
T18 chain: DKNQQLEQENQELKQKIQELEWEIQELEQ

4H949-bN = target: T19, 4H949-bN
T19 chain: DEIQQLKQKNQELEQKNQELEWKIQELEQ

4H2859-bN = target: T20, 4H2859-bN
T20 chain: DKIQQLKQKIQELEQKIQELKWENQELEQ

4H2444-bN = target: T21, 4H2444-bN
T21 chain: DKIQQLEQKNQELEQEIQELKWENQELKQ

4H796-bN = target: T22, 4H796-bN
T22 chain: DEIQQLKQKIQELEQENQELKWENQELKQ

4H235-bN = target: T23, 4H235-bN
T23 chain: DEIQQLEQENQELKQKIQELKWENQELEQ

4H349-bN = target: T24, 4H349-bN
T24 chain: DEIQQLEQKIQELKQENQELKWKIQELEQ

4H730-bN = target: T25, 4H730-bN
T25 chain: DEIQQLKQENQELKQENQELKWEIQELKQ

4H2518-bN = target: T26, 4H2518-bN
T26 chain: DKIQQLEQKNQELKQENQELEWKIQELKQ

4H932-bN = target: T27, 4H932-bN
T27 chain: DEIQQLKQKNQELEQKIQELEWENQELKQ

P2A-bS = target: T28, P2A-bS
T28 chain: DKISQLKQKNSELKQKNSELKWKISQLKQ

P5A-bS = target: T29, P5A-bS
T29 chain: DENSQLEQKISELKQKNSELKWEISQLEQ

P6A-bS = target: T30, P6A-bS
T30 chain: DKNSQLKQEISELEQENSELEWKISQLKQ

P3A-bS = target: T31, P3A-bS
T31 chain: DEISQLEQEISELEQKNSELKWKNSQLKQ

P7A-bS = target: T32, P7A-bS
T32 chain: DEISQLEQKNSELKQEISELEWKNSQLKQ

P4A-bS = target: T33, P4A-bS
T33 chain: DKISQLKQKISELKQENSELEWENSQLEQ

P8A-bS = target: T34, P8A-bS
T34 chain: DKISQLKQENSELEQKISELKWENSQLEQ

P9A-bS = target: T35, P9A-bS
T35 chain: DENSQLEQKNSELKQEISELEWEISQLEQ

4H2944-bN = target: T36, 4H2944-bN
T36 chain: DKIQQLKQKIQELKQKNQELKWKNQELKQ

4H342-bN = target: T37, 4H342-bN
T37 chain: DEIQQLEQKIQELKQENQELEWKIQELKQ

4H491-bN = target: T38, 4H491-bN
T38 chain: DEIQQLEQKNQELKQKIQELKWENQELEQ

4H48-bN = target: T39, 4H48-bN
T39 chain: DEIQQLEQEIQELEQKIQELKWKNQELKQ

P7A-bP = target: T40, P7A-bP
T40 chain: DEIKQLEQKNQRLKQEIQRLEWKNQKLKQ

P9A-bP = target: T41, P9A-bP
T41 chain: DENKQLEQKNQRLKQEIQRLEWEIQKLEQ

P5A-bP = target: T42, P5A-bP
T42 chain: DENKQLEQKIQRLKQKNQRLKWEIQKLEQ

P4A-bP = target: T43, P4A-bP
T43 chain: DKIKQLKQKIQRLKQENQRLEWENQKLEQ

P3A-bP = target: T44, P3A-bP
T44 chain: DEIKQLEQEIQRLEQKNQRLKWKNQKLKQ

P8A-bP = target: T45, P8A-bP
T45 chain: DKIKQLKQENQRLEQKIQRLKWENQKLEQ

P6A-bP = target: T46, P6A-bP
T46 chain: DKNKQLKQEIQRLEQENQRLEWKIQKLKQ

P2A-bP = target: T47, P2A-bP
T47 chain: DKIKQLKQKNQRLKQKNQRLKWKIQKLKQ

interaction score (4H3364-bN): -1.32
interaction score (4H2760-bN): 0.286
interaction score (4H3381-bN): -0.558
interaction score (4H56-bN): -0.248
interaction score (4H2931-bN): -0.437
interaction score (4H2585-bN): -1.66
interaction score (4H264-bN): 0.574
interaction score (4H3041-bN): -0.989
interaction score (4H2253-bN): 1.16
interaction score (4H3297-bN): 0.232
interaction score (4H949-bN): -0.506
interaction score (4H2859-bN): -0.113
interaction score (4H2444-bN): 0.131
interaction score (4H796-bN): -1.07
interaction score (4H235-bN): -0.204
interaction score (4H349-bN): -0.821
interaction score (4H730-bN): -0.523
interaction score (4H2518-bN): 0.436
interaction score (4H932-bN): -0.7
Binder: DKIQQLEQENQELKQEIQELKWKIQELEQ [4H2253-bN]

interaction score (4H2944-bN): -0.735
interaction score (4H342-bN): -0.943
interaction score (4H491-bN): -0.954
interaction score (4H48-bN): -0.0947
Binder: DKIQQLKQKIQELKQKNQELKWKNQELKQ [4H2944-bN]

interaction score (P7A-bP): -2.54
interaction score (P9A-bP): -0.913
interaction score (P5A-bP): -1.71
interaction score (P4A-bP): -1.81
interaction score (P3A-bP): -1.2
interaction score (P8A-bP): -0.672
interaction score (P6A-bP): -0.533
interaction score (P2A-bP): 0.0236
Binder: DKIKQLKQKNQRLKQKNQRLKWKIQKLKQ [P2A-bP]

The next lines start with the binder.

Binder: DKIAQLKQENAELEQKNAELKWEIAQLEQ [4H2745-bA]
interaction score (P1mSN): -0.547
interaction score (4H3974-bA): 0
interaction score (4H3907-bA): -1.14
interaction score (4H363-bA): -1.18
interaction score (4H470-bA): 2.34
interaction score (4H344-bA): 0.257
interaction score (4H3961-bA): -1.18
interaction score (4H2745-bA): -0.711

Binder: DKISQLKQKNSELKQKNSELKWKISQLKQ [P2A-bS]
interaction score (P2A-bS): -1.36
interaction score (P5A-bS): -0.924
interaction score (P6A-bS): -1.71
interaction score (P3A-bS): -0.857
interaction score (P7A-bS): -0.792
interaction score (P4A-bS): -0.497
interaction score (P8A-bS): -0.742
interaction score (P9A-bS): -0.777
